# From publication PMC9482650, “Quantitative fragmentomics allow affinity mapping of interactomes” (Nature Communications, 2022)
# T1: ARHGAP21, Q5T5U3
# T1 sequence (Q5T5U3 45-169, limits assumed, looked up): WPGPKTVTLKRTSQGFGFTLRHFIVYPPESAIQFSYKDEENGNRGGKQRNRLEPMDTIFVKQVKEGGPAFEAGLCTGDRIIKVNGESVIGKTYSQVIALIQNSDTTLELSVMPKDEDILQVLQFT
# T2: CARD11, Q9BXL7
# T2 sequence (Q9BXL7 662-765, limits assumed, looked up): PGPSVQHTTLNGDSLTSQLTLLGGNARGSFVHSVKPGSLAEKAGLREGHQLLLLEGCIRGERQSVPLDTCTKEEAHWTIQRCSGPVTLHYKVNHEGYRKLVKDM
# T3: FRMPD1, Q5SYB0
# T3 sequence (Q5SYB0 52-145, limits assumed, looked up): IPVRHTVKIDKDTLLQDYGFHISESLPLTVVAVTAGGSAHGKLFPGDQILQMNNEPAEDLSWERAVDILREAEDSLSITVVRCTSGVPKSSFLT
# T4: GRIP1_4, Q9Y3R0
# T4 sequence (Q9Y3R0 467-571, limits assumed, looked up): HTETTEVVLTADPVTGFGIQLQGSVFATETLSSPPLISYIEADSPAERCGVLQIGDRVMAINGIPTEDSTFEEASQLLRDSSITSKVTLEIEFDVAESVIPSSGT
# T5: HTRA4, P83105
# T5 sequence (P83105 378-476, limits assumed, looked up): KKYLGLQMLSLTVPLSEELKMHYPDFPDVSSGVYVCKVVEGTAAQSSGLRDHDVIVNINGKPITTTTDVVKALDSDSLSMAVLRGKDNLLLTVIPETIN
# T6: LIN7B, Q9HAP6
# T6 sequence (Q9HAP6 88-185, limits assumed, looked up): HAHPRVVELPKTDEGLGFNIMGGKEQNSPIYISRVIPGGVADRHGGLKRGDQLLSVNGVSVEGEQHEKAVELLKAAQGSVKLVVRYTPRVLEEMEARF
# T7: LIN7C, Q9NUP9
# T7 sequence (Q9NUP9 88-185, limits assumed, looked up): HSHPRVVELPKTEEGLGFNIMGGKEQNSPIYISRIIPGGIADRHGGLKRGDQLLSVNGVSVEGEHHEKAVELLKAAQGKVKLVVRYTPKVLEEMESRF
# T8: LNX2_3, Q8N448
# T8 sequence (Q8N448 463-564, limits assumed, looked up): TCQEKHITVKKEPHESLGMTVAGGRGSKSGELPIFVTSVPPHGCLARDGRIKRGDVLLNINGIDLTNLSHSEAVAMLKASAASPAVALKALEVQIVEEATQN
# T9: MPP2, Q14168
# T9 sequence (Q14168 180-250, limits assumed, looked up): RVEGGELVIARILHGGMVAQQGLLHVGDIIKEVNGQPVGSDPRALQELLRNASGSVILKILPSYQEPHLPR
# T10: PDZD2_2, O15018
# T10 sequence (O15018 329-429, limits assumed, looked up): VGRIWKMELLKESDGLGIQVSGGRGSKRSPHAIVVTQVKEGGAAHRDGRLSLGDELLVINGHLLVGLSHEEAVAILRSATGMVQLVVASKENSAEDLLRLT
# T11: PDZD7_3, Q9H5P4
# T11 sequence (Q9H5P4 857-944, limits assumed, looked up): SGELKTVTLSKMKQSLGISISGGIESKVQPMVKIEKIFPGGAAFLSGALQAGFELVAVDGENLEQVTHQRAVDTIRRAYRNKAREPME
# Key:
# Assay in all cases: holdup assay
# Parameters in all cases: key: below the threshold = too weak to quantify, mostly under pKd 3.1 to 4
# Settings in all cases: plain residues with an end cap or a label only (N-terminal biotin on a linker: ado-ado)
# AHNAK1, Q09666 = molecular target: AHNAK1, Q09666
# ARHGAP21, Q5T5U3 = molecular target: T1, ARHGAP21, Q5T5U3
# CARD11, Q9BXL7 = molecular target: T2, CARD11, Q9BXL7
# DLG4_2, P78352 = molecular target: DLG4_2, P78352
# FRMPD1, Q5SYB0 = molecular target: T3, FRMPD1, Q5SYB0
# FRMPD2_1, Q68DX3 = molecular target: FRMPD2_1, Q68DX3
# FRMPD2_2, Q68DX3 = molecular target: FRMPD2_2, Q68DX3
# GRID2IP_1, A4D2P6 = molecular target: GRID2IP_1, A4D2P6
# GRIP1_4, Q9Y3R0 = molecular target: T4, GRIP1_4, Q9Y3R0
# HTRA4, P83105 = molecular target: T5, HTRA4, P83105
# IL16_4, Q14005 = molecular target: IL16_4, Q14005
# Inadl_1, Q8NI35 = molecular target: Inadl_1, Q8NI35
# Inadl_3, Q8NI35 = molecular target: Inadl_3, Q8NI35
# Inadl_6, Q8NI35 = molecular target: Inadl_6, Q8NI35
# Inadl_8, Q8NI35 = molecular target: Inadl_8, Q8NI35
# Inadl_9, Q8NI35 = molecular target: Inadl_9, Q8NI35
# LIN7B, Q9HAP6 = molecular target: T6, LIN7B, Q9HAP6
# LIN7C, Q9NUP9 = molecular target: T7, LIN7C, Q9NUP9
# LNX1_3, Q8TBB1 = molecular target: LNX1_3, Q8TBB1
# LNX2_3, Q8N448 = molecular target: T8, LNX2_3, Q8N448
# MAGI2_5, Q86UL8 = molecular target: MAGI2_5, Q86UL8
# MAST2, Q6P0Q8 = molecular target: MAST2, Q6P0Q8
# MPP2, Q14168 = molecular target: T9, MPP2, Q14168
# NHERF4_1, Q86UT5-2 = molecular target: NHERF4_1, Q86UT5-2
# NHERF4_4, Q86UT5 = molecular target: NHERF4_4, Q86UT5
# PDZD2_2, O15018 = molecular target: T10, PDZD2_2, O15018
# PDZD7_3, Q9H5P4 = molecular target: T11, PDZD7_3, Q9H5P4
# Sequence of FRMPD2_2, Q68DX3 (Q68DX3 944-1038): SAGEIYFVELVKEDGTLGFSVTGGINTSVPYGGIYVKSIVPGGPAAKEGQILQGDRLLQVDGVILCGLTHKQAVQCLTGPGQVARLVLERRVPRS
# Sequence of NHERF4_4, Q86UT5 (Q86UT5 464-550): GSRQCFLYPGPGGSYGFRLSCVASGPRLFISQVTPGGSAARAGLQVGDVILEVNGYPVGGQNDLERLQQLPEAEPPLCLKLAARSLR
# Sequence of Inadl_1, Q8NI35 (Q8NI35 113-229): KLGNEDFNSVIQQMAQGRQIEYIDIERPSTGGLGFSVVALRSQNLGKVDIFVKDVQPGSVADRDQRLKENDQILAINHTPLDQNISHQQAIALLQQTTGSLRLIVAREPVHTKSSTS
# Sequence of LNX1_3, Q8TBB1 (Q8TBB1 500-596): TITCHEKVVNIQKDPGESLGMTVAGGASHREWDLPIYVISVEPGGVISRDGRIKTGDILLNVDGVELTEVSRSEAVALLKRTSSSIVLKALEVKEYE
# Sequence of NHERF4_1, Q86UT5-2 (Q86UT5 other isoform, or with tags, fused parts or gaps): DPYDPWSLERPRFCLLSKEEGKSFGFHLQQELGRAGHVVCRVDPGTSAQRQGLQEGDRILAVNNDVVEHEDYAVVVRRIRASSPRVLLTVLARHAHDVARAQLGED
# Sequence of Inadl_3, Q8NI35 (Q8NI35 359-469): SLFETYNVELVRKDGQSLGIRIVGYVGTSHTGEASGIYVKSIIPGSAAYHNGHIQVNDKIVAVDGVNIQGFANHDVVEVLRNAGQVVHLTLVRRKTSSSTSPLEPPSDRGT
# Sequence of Inadl_9, Q8NI35 (Q8NI35 1530-1615): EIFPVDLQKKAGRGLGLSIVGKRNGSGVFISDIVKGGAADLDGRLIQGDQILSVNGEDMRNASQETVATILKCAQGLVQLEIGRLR
# Sequence of Inadl_6, Q8NI35 (Q8NI35 1058-1167): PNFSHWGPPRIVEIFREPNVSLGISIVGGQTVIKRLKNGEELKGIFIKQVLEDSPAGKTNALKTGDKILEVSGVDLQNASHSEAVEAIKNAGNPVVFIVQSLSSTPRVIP
# Sequence of GRID2IP_1, A4D2P6 (A4D2P6 1-87): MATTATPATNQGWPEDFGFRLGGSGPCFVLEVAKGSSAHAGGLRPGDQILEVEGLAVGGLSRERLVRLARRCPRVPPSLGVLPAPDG
# Sequence of MAST2, Q6P0Q8 (Q6P0Q8 1099-1202): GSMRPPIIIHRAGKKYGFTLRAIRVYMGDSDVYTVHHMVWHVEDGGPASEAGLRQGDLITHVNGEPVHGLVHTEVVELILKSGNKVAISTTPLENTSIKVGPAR
# Sequence of AHNAK1, Q09666 (Q09666 4-100): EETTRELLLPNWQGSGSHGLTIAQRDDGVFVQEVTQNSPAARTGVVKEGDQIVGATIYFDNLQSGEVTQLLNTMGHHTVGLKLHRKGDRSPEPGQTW
# Sequence of IL16_4, Q14005 (Q14005 1229-1329): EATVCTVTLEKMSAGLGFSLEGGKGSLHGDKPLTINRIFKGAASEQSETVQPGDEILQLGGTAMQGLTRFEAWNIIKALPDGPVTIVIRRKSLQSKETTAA
# Sequence of DLG4_2, P78352 (P78352 155-259): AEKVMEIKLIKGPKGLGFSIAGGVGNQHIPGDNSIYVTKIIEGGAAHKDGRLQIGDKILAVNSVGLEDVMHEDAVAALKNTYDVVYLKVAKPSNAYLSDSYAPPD
# Sequence of Inadl_8, Q8NI35 (Q8NI35 1425-1530): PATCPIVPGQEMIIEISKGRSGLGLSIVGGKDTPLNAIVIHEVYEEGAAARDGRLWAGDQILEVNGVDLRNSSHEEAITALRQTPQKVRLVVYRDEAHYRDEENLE
# Sequence of FRMPD2_1, Q68DX3 (Q68DX3 770-861): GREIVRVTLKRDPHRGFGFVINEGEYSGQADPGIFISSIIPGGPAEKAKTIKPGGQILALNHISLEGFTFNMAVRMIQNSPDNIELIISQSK
# Sequence of MAGI2_5, Q86UL8 (Q86UL8 915-1017): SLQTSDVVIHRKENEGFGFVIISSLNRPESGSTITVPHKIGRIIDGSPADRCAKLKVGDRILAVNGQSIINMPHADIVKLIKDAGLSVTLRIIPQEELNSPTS
binder,measurement,setting,value
"TKEIPNCTSV [SORCS3, Q9UPU3]",pKd,"AHNAK1, Q09666",below the threshold
same,pKd,"ARHGAP21, Q5T5U3",3.86
same,pKd,"CARD11, Q9BXL7",below the threshold
same,pKd,"DLG4_2, P78352",4.28
same,pKd,"FRMPD1, Q5SYB0",below the threshold
same,pKd,"FRMPD2_1, Q68DX3",below the threshold
same,pKd,"FRMPD2_2, Q68DX3",4.21
same,pKd,"GRID2IP_1, A4D2P6",below the threshold
same,pKd,"GRIP1_4, Q9Y3R0",below the threshold
same,pKd,"HTRA4, P83105",4.44
same,pKd,"IL16_4, Q14005",below the threshold
same,pKd,"Inadl_1, Q8NI35",below the threshold
same,pKd,"Inadl_3, Q8NI35",below the threshold
same,pKd,"Inadl_6, Q8NI35",below the threshold
same,pKd,"Inadl_8, Q8NI35",4.28
same,pKd,"Inadl_9, Q8NI35",3.7
same,pKd,"LIN7B, Q9HAP6",below the threshold
same,pKd,"LIN7C, Q9NUP9",below the threshold
same,pKd,"LNX1_3, Q8TBB1",below the threshold
same,pKd,"LNX2_3, Q8N448",below the threshold
same,pKd,"MAGI2_5, Q86UL8",3.99
same,pKd,"MAST2, Q6P0Q8",5.82
same,pKd,"MPP2, Q14168",below the threshold
same,pKd,"NHERF4_1, Q86UT5-2",4.2
same,pKd,"NHERF4_4, Q86UT5",4.05
same,pKd,"PDZD2_2, O15018",4.72
same,pKd,"PDZD7_3, Q9H5P4",4.82
"QLKSGRDSTV [TMEM178A, Q8NBL3]",pKd,"AHNAK1, Q09666",3.55
same,pKd,"ARHGAP21, Q5T5U3",4
same,pKd,"CARD11, Q9BXL7",below the threshold
same,pKd,"DLG4_2, P78352",4.61
same,pKd,"FRMPD1, Q5SYB0",below the threshold
same,pKd,"FRMPD2_1, Q68DX3",below the threshold
same,pKd,"FRMPD2_2, Q68DX3",below the threshold
same,pKd,"GRID2IP_1, A4D2P6",below the threshold
same,pKd,"GRIP1_4, Q9Y3R0",3.56
same,pKd,"HTRA4, P83105",below the threshold
same,pKd,"IL16_4, Q14005",3.83
same,pKd,"Inadl_1, Q8NI35",below the threshold
same,pKd,"Inadl_3, Q8NI35",below the threshold
same,pKd,"Inadl_6, Q8NI35",below the threshold
same,pKd,"Inadl_8, Q8NI35",3.7
same,pKd,"Inadl_9, Q8NI35",3.52
same,pKd,"LIN7B, Q9HAP6",below the threshold
same,pKd,"LIN7C, Q9NUP9",4.13
same,pKd,"LNX1_3, Q8TBB1",below the threshold
same,pKd,"LNX2_3, Q8N448",below the threshold
same,pKd,"MAGI2_5, Q86UL8",below the threshold
same,pKd,"MAST2, Q6P0Q8",4.08
same,pKd,"MPP2, Q14168",below the threshold
same,pKd,"NHERF4_1, Q86UT5-2",below the threshold
same,pKd,"NHERF4_4, Q86UT5",3.74
same,pKd,"PDZD2_2, O15018",4.32
same,pKd,"PDZD7_3, Q9H5P4",4.19
